These are literature values, as cited in paper PMC3499705.

The Kd is the equilibrium constant for the complex coming apart.

Like-named read-outs stand apart in the source and are kept apart here.

Data set [1] has as its target VPAC1 receptor N-terminal ectodomain (Homo sapiens) (UniProt P32241). The data set is described as follows: intrinsic tryptophan fluorescence.
Data set [2] has the same target.
The target in a further data set is VIP (Homo sapiens) (UniProt P01282).
For another data set, the target named is GRF (Homo sapiens) (UniProt P01286). The data set is described as follows: intrinsic tryptophan fluorescence.
For data set [3], the target named is Helodermin (Heloderma suspectum) (UniProt P04204). The data set can be described thus: intrinsic tryptophan fluorescence.
The target in data set [4] is PACAP27 PACAP27 (Homo sapiens) (UniProt P18509). The data set is described as follows: intrinsic tryptophan fluorescence.
The next data set concerns the target PHM PHM (Homo sapiens) (UniProt P01282). The data set can be described thus: intrinsic tryptophan fluorescence.
The next data set addresses Secretin (Homo sapiens) (UniProt P09683). The data set can be described thus: intrinsic tryptophan fluorescence.
Data set [5] deals with VIP2-28 2-28 (Homo sapiens) (UniProt P01282). The data set is described as follows: intrinsic tryptophan fluorescence.
For data set [6], the target named is VIP6-28 6-28 (Homo sapiens) (UniProt P01282). The data set is described as follows: intrinsic tryptophan fluorescence.

As to GRF (from UniProt P01286), the Kd in [1] was 10100 nM.

With PACAP27 PACAP27 (from UniProt P18509), the Kd in data set [1] is 570 nM.

For the substance PHM PHM (from UniProt P01282), the Kd in [1] was 8000 nM.

Take VIP2-28 2-28 (from UniProt P01282): the Kd in data set [1] was 850 nM.

Turning to VIP (from UniProt P01282), in [2], the Kd is 540 nM.

On to “VPAC1 receptor 31-144 (from UniProt P32241)”, for which the Kd with VIP (Homo sapiens) is 540 nM; with GRF (Homo sapiens) it was 10100 nM; in data set [3] it was 2540 nM; in [4], 570 nM; with PHM PHM (Homo sapiens), 8000 nM; with Secretin (Homo sapiens) it was 16000 nM. Also, the Kd in data set [5] and in data set [6] was 850 nM in each case.

With helodermin (from UniProt P04204), the Kd in data set [1] is 2540 nM.

secretin (from UniProt P09683): the Kd in data set [1] was 16000 nM.
